In the DeepSol protein solubility set:

experiment: soluble on expression in E. coli; label from the status in PepcDB or PDB records

| Sequence | soluble on expression in E. coli |
| --- | --- |
| GYCGPCPNNWICHRNNCYQFFNEEKTWNQSQASCLSQNSSLLKIYSKEEQDFLKLVKSYHWMGLVQIPANGSWQWEDGSSLSYNQLTLVEIPKGSCAVYGSSFKAYTEDCANLNTYICMKRAV | soluble |
| GYSQYNIHGNQFYNLGIDYAYRWHRFSFQGETAMGKQGSATLNRFQYSPVEGTQLMIVQRYYSYNYWAMFAHSFGEGSAVQNEQGYYLGVETSPFRYWHILASFDLFSFPWKKYRISKPSRGMDGLLQATFTPHNNLTMYLKYRYKQKERDLTGSKENLTLPIFHHQLRYRLNYFYGDVFSCRTTLDYNHFHSQDRAASKGYQVTQMMSSQLPWTRLFADVQGSYFSTDDYDSRVYVSEKGLLYTFYTPSFQGRGFRCAVRLRYEPNEHWMFITKFGETVYLDRNEIGSGNDLILGNKKADVQMQLRIKF | not soluble |
| HARKSLTVLVVGESARAENFGILGYGRNTTPNLNKENGLVAFTDVYSCGTETAVSVPCMFSNMGRKNYNATKARNQEGLLDVLKHAGIEVAWRDNQSGCKGTCDRVTFQDVSNLTDPLLCNSHECRDEILLQNLQGFIDSLDKDTVLVLHQMGSHGPEYYKRYPKEFEKFTPVCESNALNNCSRDSIVNAYDNTLLYTDHVLSTLIDLLRSNQAKVDTAMVYLSDHGESLGEYNLFLHGTPYVLAPDQQKHVPMLIWLSDTYQKSFAVTPDCLAKQRNAPLSQDNLFHSMLGLLKVDTKVYDPSLDMFAGCRSELAAADKQ | not soluble |
| HAYKNALYDDEVSQFSNNWPLYYPLTARKFIYKHDLVDENIASKNRVELTNIERSSLNYPLAPIQVQSKEKQPNVLFILVDAWRYSDATPEVMPNVSKFAEKTVNFTQHMSGGNSTQAGIFSLFYSLPATYWESFYASQRSPVFMDTLQAEGYRMGIFGSAPLTSPPLSRTVFKKVSDLTLKQTGETAVERDQQITDKFIEFQKQDSDKPYFGFLFYDAAHGTVFPEPEFAKFKPYWERVDHILLNNDFDASLYHNRYKNSLYYIDSLIDDVLKNVDLDNTIVVISSDHGEEFNDHKMNYWGHTGNYSDVQVHVPLYVYMPNRQPEQIDYRTTHFDVVPTMMNTLFDVQGTTSSYSVGHNLFDSSAPRDWYIAGSYYNYALVGKELMLVVNPGGHSQQLNRQLKVEKEQKVPVDIIRHSLDEMSRFYKKG | not soluble |
| HFASTRSFLDTVKLDHAIWKNNIYRLLQSGSFGETVNSHSECRLGQWYYRGDGKAYSQLRSYAQLEAPHKGVHDSGRDAMNHAKSGNMAGMVTSINSMEDTSEQVVIHIDRLMDEIIAN | not soluble |
| HHHHHHGSAQLPSPTNGKKWEKVEQLSDEFDGNSIDTNKWYDYHPFWEGRAPSNFKKGDAFVSDGFLNLRSTLRKEPSSVQDPFKDIWVDAAAAVSKTKAQPGYYYEARFMASSLSMTSSFWFRVGQFSSIDVIEHIGDPSKENRQDDLPYQYHVNTHYYGKHAGLQPLGTEYKMPGRGRDNFYTYGFWWKSPNELLFYFNGKQVMRIVPRVPLDEELRMIFDTEVFPFATAGVANIGLPKPENLRDNSKNTMKVDWVRVYKLVDGTA | soluble |
| HHHHHHHHHHMLPTPYVKCDYDKVYEPAEDSFLILDCLEKEHDFLKQKFGNRLAIVCEIGSGSGIVTTFLMQNKIIPQENSIHLAVDINPWALEATLDTAKLNSCKSSFLEVIQADLNSSIRNNQVDVLIFNPPYVPAECVPDVPGSREEADQWLDLALLGGKDGMAITDKLLRQLEQILSPDGVAYILFCARNKPKEVIKRFVDTYKWNVKLIETRKAGWEVLSVYSFTR | not soluble |
| HHSVEAPQVKKRMGKFPFVKASKKESEEISKQLHNALDIELPSESTVWLRDKDVWLFPDALEPMIGELRFSRMGIKIAEAHKNGYRWQHQVATALATGAESNAIELTIEEAREWYMGRDVRPQIIPEGLKTGKGEVLVKYQGAIIGLGKWVSNRIKNGLPRELVRDKNLF | not soluble |
| HHYVKGELKIAASFTIGEYILPPLLAQLQKLYPELNLDVMIGNTEEVSERVRMLQADIGLIEGHTNENELEIEPFMEDEMCIAAPNQHPLAGRKEISISDLQNEAWVTREKGSGTREYLDHVLSSNGLRPKSMFTISSNQGVK | not soluble |
| HMRQRHILFANVQGHGHVYPSLGLVSELARRGHRITYVTTPLFADEVKAAGAEVVLYKSEFDTFHVPEVVKQEDAETQLHLVYVRENVAILRAAEEALGDNPPDLVVYDVFPFIAGRLLAARWDRPAVRLTGGFAANEHYSLFKELWKSNGQRHPADVEAVHSVLVDLLGKYGVDTPVKEYWDEIEGLTIVFLPKSFQPFAETFDERFAFVGPTLTGRDGQPGWQPPRPDAPVLLVSLGNQFNEHPEFFRACAQAFADTPWHVVMAIGGFLDPAVLGPLPPNVEAHQWIPFHSVLAHARACLTHGTTGAVLEAFAAGVPLVLVPHFATEAAPSAERVIELGLGSVLRPDQLEPASIREAVERLAADSAVRERVRRMQRDILSSGGPARAADEVEAYLGRVAP | soluble |
| HMTPQDHEKAALIMQVLQLTADQIAMLPPEQRQSILILKEQIQKSTGAP | soluble |
| HRIDTKTAQKDKFGAGKNGFTRGNPQTGTPATDLDDDYFDMLQEELCSVVEASGASLEKGRHDQLLTALRALLLSRKNPFGDIKSDGTVQTALENLGLGEGAKLNAATATLGRTGFIAIPVMIGGIEQSVIIQWGWNAAKASASGGDGNTVVFPVAFNNACVAVVANYDNVSAPINAVATGGYTTTSFLLRCAAQTGSYYYNWIAIGY | not soluble |
| HRTRIEDESIHKLVLDAHRCIHQHLDVLHQQLHQHCEECDLSNIDDAGLEQRLNEWRDEDDSSARMVLQQLHLIYRMLPELHSLASKFAVRVN | not soluble |
| HSGEDLPMVAPGNVRVNVVNSTLAEVHWDPVPLKSIRGHLQGYRIYYWKTQSSSKRNRRHIEKKILTFQGSKTHGMLPGLEPFSHYTLNVRVVNGKGEGPASPDRVFNTPEG | soluble |
| HTLNKALADTRANLTESVGNAGEVLHDITGVVSTPMPSENDSENLFDSVSNYPTGNKSDTHNAFGSSGKTAPMPYQSAYAPQQRSLSLRESRAAMNTYAELYKKTDDIDLELSRFEQARFGNMPSETPAPQTDTPLSDGIPSQSELPPLGFAIAQLLGIYILAQAEDSLLLIDMHAAAERVNYEKMKRQRQENGNLQSQRLLIPVTFAASHEECAALADYAETLAGFGLELSDMGGNTLAVRAVPAMLGKADVVSLAKDVLNELAQVGSSQTIEEHENRILATMSCHGSIRAGRRLTLPEMNALLRDMENTPRSNQCNHGRPTWVKLTLKELDALFLRGQ | not soluble |
| HVYAFDIQESAVANTKERLGDMYQARTTLFHKSHDKIAESLPPETHGKVAAAVFNLGYLPGGDKSITTNGSSTIKAIEQLLSIMKDEGLIVLVVYHGHPEGKAEKNDVLEFCRDLDQQTARVLTYGFINQQNDPPFIVAIEKKAQISK | not soluble |
| IEIRSVVYQIEGQPYESRLVYDSSATALQPGLLMAPNWMGVSRGAEDIARAVAAKGYVVLLADLYGQQLRPSNNDEAGAAMTPLKNDRGLLRKRMQAGLDQLLSQADVSLDVSRIATFGFCFGGCCSLELARTGAELKAAISFHGTLDTPNPADASNIKGSVLVLHGASDPLVPKEQLPAFEEEMNAAGVDWQLHSHGGAFHSFTDPHANVPGMMMYDAKVSARAFKSMHDLLKEVFG | not soluble |
| IGADVDLATLSGLDGAALHFEQTIFILDNGTGQPTGGEWQGAVGSYFGGAPLHNDIASNQLSLLTYKQKWLDGQLDLHVGRTNGRRYFYIYNCETGVTCNDPILDASSGMLPPPFGAWGGYLKYQVNPRFYVHAGAFESNPVDYLKKRKGLDFSTDDASGTSFLVGIGSKPGDNTTQYELNA | not soluble |
| ILEQDLNDFMSTGAHGLDLYQLVVGGTAPMLNLVEKGKIPPPATTPEKAGMYELGVNFMAKHHMKQLSVNHWAVDNRERSLYNSLAKTYAE | not soluble |
| ILVKNLPQDSNCQEVHDLLKDYDLKYCYVDRNKRTAFVTLLNGEQAQNAIQMFHQYSFRGKDLIVQLQPTDALLC | soluble |
| IPNDILIVNPEAQGLVDGHKVIVKITKYPEGRMSAEGEVISILGHKNDPGMDILSIIYKYGIPQAFPEEVLQQAQNIPDEIDAGEIKNRRDLRDEPLVTIDGADAKDLDDAVHVSRLPNGNFKLGVHIADVSYYVKEKSPIDLEAAERGTSVYLVDRVIPMIPHRLSNGICSLNPQVDRLTLSCEMEITRDGQVVNHEIFQSVIRTNERMTYHDVNKILVEKEEELRNRYELLVPMFEDMEELAAILRKKRFGRGAIDFDFKEAKVLVDEEGKPSDVVIRERGVAEKLIEEFMLAANETVAEHFHWLKLPFMYRIHEDPDSEKLGRFLEFITNFGYVVRGTANTVHPRALQKLLEEVRGEPEEQVISTVMLRSMQQAK | not soluble |
| IQVFLSARPPAPEVSKIYDNLILQYSPSKSLQMILRRALGDFENMLADGSFRAAPKSYPIPHTAFEKSIIVQTSRMFPVSLIEAARNHFDPLGLETARAFGHKLATAALACFFAREKATNS | soluble |
| IRTHLNLPSDKKVIMYAPTWRDDEFVSKGKYLFELKIDLDNLYKELGDDYVILLRMHYLISNALDLSGYENFAIDVSNYNDVSELFLISDCLITDYSSVMFDYGILKRPQFFFAYDIDKYDKGLRGFYMNYMEDLPGPIYTEPYGLAKELKNLDKVQQQYQEKIDAFYDRFCSVDNGKASQYIGDLIHK | not soluble |
| ISTEEAAPDGPPMDVTLQPVTSQSIQVTWKAPKKELQNGVIRGYQIGYRENSPGSNGQYSIVEMKATGDSEVYTLDNLKKFAQYGVVVQAFNRAGTGPSSSEINATTLE | soluble |
| KGKDDAGEKPDEPADPCGLALQVQAQGTLEQLEAELTGAGQGLALEARAGLLPQAPFPLRTASLKLTREDKSSLAATLDWQPQPGQPGRDRVVATFEAERLDLQRLAGEAIPPAMLSARGGLDAEVDDLSSLHRATLTLDVTKGSSWNRHPLAGKVAASVSALGDPPGAFATAAPAQPHALPGGLWVDQLDVDLQLGPNRVRAQGKLDERAGALKLDAQAPRLDAFWPGIPGAASVKAALDGALARHRGRIEAAYTPADARARVLGRARAQAQLEFSGGWGAGPAAEGAAAGWRGSVSRLTADSAGFALALERPVTLAYVPEALAPQWQWQVGATTLALTFPDKQRVALAHAASRGGAGRWETAGRADALVITAAMVRQILVALDPEAVARAERDSGSPVNAPVPAAQRRISLDASWDLKFAGALAGKVRVARRDGDLRIPGDPPIPLGLRTLVLEANATPTGGQASRLDARLDMATARMGAINGTASATLGGLALDPRQPIRVALDADVTDLAWLGLFVGDTLEVGGMLKANVRAQGSLDGKWNASGTVNGDKLRVVRIDDGVRLIDGMLRARLQDDRVILDSLRFPASLRVMPAEWRTREWVSTNPDAKGGYLEATGQWELSAARGQVRLQLHRFPALQRSDRYGMVSGVVTLDAALPRISINGDITADAGWVSLEILQGVPTLDDDVKVVRAGQKNAQGDGPPLQIDMNLKVDMGPRFYITGMGLDAGLLGSIQIRLQEGRLTGYGALRTRGGGIEAYGQKLRLRRGTLTFQGRLDNPLLDIEALRTGEQVEAGVRVAGTAQRPRIDLVSYPDVSDVEKLSWLVLGRGPDASGGDTALLLSVGTALLGGGQPFYKQFGLDDVSVRSGAIGSSGSLLPDRTVAAGVNRDSDADLATQFLVASKRFANGITLSVEQALAGSETVGRA | not soluble |
